The text below walks through data of paper PMC4105854.

As usually defined, the Kd is the free concentration of one partner at which half of the binding sites on the other are occupied at equilibrium, for simple one-to-one binding. The low end stands for a tighter complex, the high end for a looser complex.

The test system of this data set is DNA gyrase. The data set is described as follows: single-molecule T7 transcription elongation rate titrated with gyrase. The conditions noted are these: multiple biotin (topologically constrained); not given in the held text.

Take “nuoB-N template with multiple biotins (~12 kb)”: the Kd was found to be 0.1 µM.
